Measurements as given in the supplement of paper PMC9112550, “Optimization of the antimicrobial peptide Bac7 by deep mutational scanning” (BMC Biology, 2022).

tested on: Escherichia coli TOP10; test: shrunken log2 fold change of peptide-encoding DNA abundance (4.5 h post-induction vs induction); higher = less antimicrobial activity (less host growth inhibition); details: time post-induction: 4.5 h; library: site-saturation at positions 5, 18, 19, 20
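Note: peptides expressed intracellularly from a pBAD plasmid library in pooled LB shake-flask culture, induced with 0.3% L-arabinose, DNA abundance read by NGS, three biological replicates, DESeq2 with apeglm shrinkage.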

Sequence | shrunken log2 fold change
RRIRCRPPRLPRPRPRPPFEPRP | 0.136
RRIRMRPPRLPRPRPRPPKPPRP | 0.717
RRIRFRPPRLPRPRPRPYGNPRP | -0.527
RRIRERPPRLPRPRPRPDRAPRP | 0.00194
RRIRERPPRLPRPRPRPMIGPRP | 0.015
RRIRPRPPRLPRPRPRPDFKPRP | -0.464
RRIRGRPPRLPRPRPRPQQVPRP | 0.564
RRIRRRPPRLPRPRPRPLQRPRP | 0.969
RRIRCRPPRLPRPRPRPRLFPRP | 0.437
RRIRVRPPRLPRPRPRPWAMPRP | -0.0382
RRIRNRPPRLPRPRPRPFKTPRP | -0.0614
RRIRIRPPRLPRPRPRPQRLPRP | 0.0966
RRIRIRPPRLPRPRPRPYVHPRP | -0.189
RRIRNRPPRLPRPRPRPMMHPRP | -0.25
RRIRHRPPRLPRPRPRPSNMPRP | -1.48
RRIRVRPPRLPRPRPRPNNRPRP | -0.276
RRIRERPPRLPRPRPRPEFEPRP | -0.159
RRIRYRPPRLPRPRPRPCNPPRP | -0.217
RRIRLRPPRLPRPRPRPVKDPRP | -0.211
RRIRTRPPRLPRPRPRPRPEPRP | 0.238
RRIRGRPPRLPRPRPRPNKEPRP | -0.00663
RRIRYRPPRLPRPRPRPMQGPRP | -0.0463

Sequence | shrunken log2 fold change
RRIRGRPPRLPRPRPRPRKMPRP | 0.949
RRIRLRPPRLPRPRPRPDDSPRP | 0.0276
RRIRMRPPRLPRPRPRPRFFPRP | 0.286
RRIRERPPRLPRPRPRPWNMPRP | -0.0894
RRIRHRPPRLPRPRPRPEKQPRP | -0.0365
RRIRERPPRLPRPRPRPGVKPRP | -0.0766
RRIRYRPPRLPRPRPRPHCEPRP | -0.00822
RRIRPRPPRLPRPRPRPTRKPRP | 0.483
RRIRFRPPRLPRPRPRPWDVPRP | -0.0811
RRIRGRPPRLPRPRPRPKTMPRP | 0.459
RRIRIRPPRLPRPRPRPRKTPRP | 0.13
RRIRGRPPRLPRPRPRPYRLPRP | -0.233
RRIRCRPPRLPRPRPRPLKPPRP | -0.225
RRIRYRPPRLPRPRPRPALHPRP | 0.12
RRIRQRPPRLPRPRPRPFWWPRP | 0.0308
RRIRYRPPRLPRPRPRPMKRPRP | -0.0321
RRIRYRPPRLPRPRPRPNSLPRP | -1.11
RRIRTRPPRLPRPRPRPWDTPRP | -0.15
RRIRLRPPRLPRPRPRPVEFPRP | 0.0713
RRIRFRPPRLPRPRPRPYDLPRP | -1.02
RRIRTRPPRLPRPRPRPDKHPRP | -0.551
RRIRHRPPRLPRPRPRPVAAPRP | 0.202

Sequence | shrunken log2 fold change
RRIRGRPPRLPRPRPRPFIRPRP | -0.257
RRIRFRPPRLPRPRPRPEPRPRP | 0.81
RRIRLRPPRLPRPRPRPDAGPRP | 0.0316
RRIRRRPPRLPRPRPRPGAYPRP | 0.00783
RRIRKRPPRLPRPRPRPVFNPRP | 0.117
RRIRSRPPRLPRPRPRPNQCPRP | -0.215
RRIRNRPPRLPRPRPRPAWAPRP | -0.0271
RRIRFRPPRLPRPRPRPDIFPRP | -0.396
RRIRSRPPRLPRPRPRPSVQPRP | -0.0563
RRIRARPPRLPRPRPRPPLTPRP | 0.536
RRIRFRPPRLPRPRPRPGVPPRP | 0.0248
RRIRQRPPRLPRPRPRPRGIPRP | -0.107
RRIRARPPRLPRPRPRPHSNPRP | -0.251
RRIRLRPPRLPRPRPRPDAQPRP | 0.34
RRIRFRPPRLPRPRPRPSQHPRP | -0.612
RRIRRRPPRLPRPRPRPHFCPRP | 0.00733
RRIRKRPPRLPRPRPRPEFNPRP | 0.15
RRIRARPPRLPRPRPRPYAEPRP | -0.104
RRIRARPPRLPRPRPRPHLYPRP | -0.218
RRIRARPPRLPRPRPRPDAEPRP | 1.63
RRIRHRPPRLPRPRPRPLYLPRP | -0.4
RRIRWRPPRLPRPRPRPTNRPRP | -0.018

Sequence | shrunken log2 fold change
RRIRLRPPRLPRPRPRPKENPRP | 0.00493
RRIRIRPPRLPRPRPRPVILPRP | -0.423
RRIRVRPPRLPRPRPRPCTFPRP | -0.0858
RRIRSRPPRLPRPRPRPNQPPRP | 0.0618
RRIRSRPPRLPRPRPRPSFGPRP | 0.176
RRIRFRPPRLPRPRPRPNEYPRP | -0.16
RRIRRRPPRLPRPRPRPRQKPRP | 0.857
RRIRVRPPRLPRPRPRPCVRPRP | 0.0421
RRIRGRPPRLPRPRPRPPIMPRP | 0.375
RRIRDRPPRLPRPRPRPNRGPRP | -0.0177
RRIRVRPPRLPRPRPRPCYHPRP | -0.00421
RRIRMRPPRLPRPRPRPQITPRP | -0.166
RRIRRRPPRLPRPRPRPHYGPRP | -0.178
RRIRVRPPRLPRPRPRPDEMPRP | 0.0261
RRIRHRPPRLPRPRPRPLKYPRP | -0.345
RRIRRRPPRLPRPRPRPIPFPRP | -0.175
RRIRNRPPRLPRPRPRPYNIPRP | -0.13
RRIRIRPPRLPRPRPRPDPSPRP | -0.0293
RRIRRRPPRLPRPRPRPETLPRP | 0.0675
RRIRQRPPRLPRPRPRPYAPPRP | -0.505
RRIRDRPPRLPRPRPRPEYPPRP | -0.0367
RRIRQRPPRLPRPRPRPEQLPRP | -0.0643

Sequence | shrunken log2 fold change
RRIRHRPPRLPRPRPRPMKYPRP | -0.0485
RRIRMRPPRLPRPRPRPVPLPRP | -0.0409
RRIRKRPPRLPRPRPRPESYPRP | 0.403
RRIRLRPPRLPRPRPRPMTVPRP | -0.108
RRIRIRPPRLPRPRPRPTHRPRP | -0.322
RRIRERPPRLPRPRPRPSWIPRP | -0.0746
RRIRCRPPRLPRPRPRPCKWPRP | -0.208
RRIRTRPPRLPRPRPRPHEQPRP | 0.177
RRIRNRPPRLPRPRPRPTENPRP | 0.0685
RRIRWRPPRLPRPRPRPNMVPRP | -0.0148
RRIRFRPPRLPRPRPRPRFGPRP | -0.0656
RRIRNRPPRLPRPRPRPIYLPRP | -0.376
RRIRMRPPRLPRPRPRPYSFPRP | -0.266
RRIRCRPPRLPRPRPRPCALPRP | -0.213
RRIRGRPPRLPRPRPRPYVEPRP | -0.00776
RRIRVRPPRLPRPRPRPRFSPRP | -0.17
RRIRDRPPRLPRPRPRPMHPPRP | -0.0589
RRIRIRPPRLPRPRPRPFTKPRP | -0.173
RRIRGRPPRLPRPRPRPLYVPRP | 0.0628
RRIRIRPPRLPRPRPRPQVKPRP | -0.405
RRIRPRPPRLPRPRPRPCIGPRP | 0.00708
